{"source": "patent US20260049103A1", "about": "“PEPTIDE, AND COMPOSITION THEREOF AND USE THEREOF” (WINKEY TECHNOLOGY USA INC, priority 2023, published 2026)", "molecules": {"B1": {"name": "EGF: positive control group: 50 U/mL of EGF in the cell scratch assay (protein, UniProt P01133 23-1207, looked up)", "Pro-epidermal growth factor": "PQHWSCPEGTLAGNGNSTCVGPAPFLIFSHGNSIFRIDTEGTNYEQLVVDAGVSVIMDFHYNEKRIYWVDLERQLLQRVFLNGSRQERVCNIEKNVSGMAINWINEEVIWSNQQEGIITVTDMKGNNSHILLSALKYPANVAVDPVERFIFWSSEVAGSLYRADLDGVGVKALLETSEKITAVSLDVLDKRLFWIQYNREGSNSLICSCDYDGGSVHISKHPTQHNLFAMSLFGDRIFYSTWKMKTIWIANKHTGKDMVRINLHSSFVPLGELKVVHPLAQPKAEDDTWEPEQKLCKLRKGNCSSTVCGQDLQSHLCMCAEGYALSRDRKYCEDVNECAFWNHGCTLGCKNTPGSYYCTCPVGFVLLPDGKRCHQLVSCPRNVSECSHDCVLTSEGPLCFCPEGSVLERDGKTCSGCSSPDNGGCSQLCVPLSPVSWECDCFPGYDLQLDEKSCAASGPQPFLLFANSQDIRHMHFDGTDYGTLLSQQMGMVYALDHDPVENKIYFAHTALKWIERANMDGSQRERLIEEGVDVPEGLAVDWIGRRFYWTDRGKSLIGRSDLNGKRSKIITKENISQPRGIAVHPMAKRLFWTDTGINPRIESSSLQGLGRLVIASSDLIWPSGITIDFLTDKLYWCDAKQSVIEMANLDGSKRRRLTQNDVGHPFAVAVFEDYVWFSDWAMPSVMRVNKRTGKDRVRLQGSMLKPSSLVVVHPLAKPGADPCLYQNGGCEHICKKRLGTAWCSCREGFMKASDGKTCLALDGHQLLAGGEVDLKNQVTPLDILSKTRVSEDNITESQHMLVAEIMVSDQDDCAPVGCSMYARCISEGEDATCQCLKGFAGDGKLCSDIDECEMGVPVCPPASSKCINTEGGYVCRCSEGYQGDGIHCLDIDECQLGEHSCGENASCTNTEGGYTCMCAGRLSEPGLICPDSTPPPHLREDDHHYSVRNSDSECPLSHDGYCLHDGVCMYIEALDKYACNCVVGYIGERCQYRDLKWWELRHAGHGQQQKVIVVAVCVVVLVMLLLLSLWGAHYYRTQKLLSKNPKNPYEESSRDVRSRRPADTEDGMSSCPQPWFVVIKEHQDLKNGGQPVAGEDGQAADGSMQPTSWRQEPQLCGMGTEQGCWIPVSSDKGSCPQVMERSFHMPSYGTQTLEGGVEKPHSLLSANPLWQQRALDPPHQMELTQ", "modifications": "Pro-epidermal growth factor", "notes": "positive control group: 50 U/mL of EGF in the cell scratch assay"}}, "tested_on": "Human keratinocytes (HaCaT)", "test": "Cell scratch assay", "type": "cell-based", "conditions": "24 h after scratch, peptides 12.5 ppm, EGF 50 U/mL, compared with blank control, FIG. 8", "experimental": "Human keratinocytes (HaCaT) were purchased from the Kunming Cell Bank of China Center for Type Culture Collection under the Chinese Academy of Sciences.\nPolypeptide group: Peptide (13) and peptide (20). The test concentrations of all the above samples were 12.5 ppm.\nBlank control group: PBS.\nPositive control group: 50 U/mL of EGF.\nA bottle of HaCaT cells in good exponential growth phase was taken. A 0.25% trypsin digestion solution was added so that digestion allowed the adherent cells to fall off, counting 1 to 4×10^5 cells/mL, which were prepared into a cell suspension.\nThe cells were inoculated into a 24-well plate at a density of 150,000 cells/well, with 2 mL cell suspension per well. After the cells attached to the wall and grew to 100% confluence, the culture medium was replaced with a medium containing 0.5%-1% fetal bovine serum to maintain the cells for 24 h for synchronization. A sterilized pipette tip was used to scratch a wound, the detached cells were washed off with PBS, and the samples to be tested were added. The incubation was continued in the 5% CO2 incubator at 37° C., and the migration of cells was observed under an optical microscope after 24 h.\nThe scratch migration experiment of cells can reflect the proliferation and repair ability of cells. […]"}
{"molecule": "B1", "values": [{"measurement": "cell proliferation and migration (scratch spacing)", "value": "obvious cell proliferation and migration"}]}
